# Data reported in patent US20220340642A1 (Kyowa Kirin, published 2022).
# Changes are numbered by the printed parent chain. Names and notes keep the numbering of the source.
# T1: primary soluble FasL produced from human T cells stimulated for AICD (human, UniProt P48023 130-281, limits assumed)
# T1 construct: also called soluble FasL derived from human T cells
# T1 sequence (looked up): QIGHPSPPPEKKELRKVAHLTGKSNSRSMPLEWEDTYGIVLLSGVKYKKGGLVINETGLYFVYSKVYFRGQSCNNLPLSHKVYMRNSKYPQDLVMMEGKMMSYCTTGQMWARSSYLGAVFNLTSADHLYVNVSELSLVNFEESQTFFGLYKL
# T2: primary soluble TL1A produced from an activated human PBMC (human, UniProt O95150 72-251, limits assumed)
# T2 sequence (looked up): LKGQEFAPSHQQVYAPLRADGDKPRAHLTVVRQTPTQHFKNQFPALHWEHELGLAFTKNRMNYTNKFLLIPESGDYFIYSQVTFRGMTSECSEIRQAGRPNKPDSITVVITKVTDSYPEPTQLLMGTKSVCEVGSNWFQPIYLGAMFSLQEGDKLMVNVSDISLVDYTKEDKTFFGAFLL
# T3: membrane-bound human FasL (Met and FLAG tag at the N-terminus) on CHO-K1 cells (human, UniProt P48023 2-281)
# T3 construct: also called FasL/CHO
# T3 sequence: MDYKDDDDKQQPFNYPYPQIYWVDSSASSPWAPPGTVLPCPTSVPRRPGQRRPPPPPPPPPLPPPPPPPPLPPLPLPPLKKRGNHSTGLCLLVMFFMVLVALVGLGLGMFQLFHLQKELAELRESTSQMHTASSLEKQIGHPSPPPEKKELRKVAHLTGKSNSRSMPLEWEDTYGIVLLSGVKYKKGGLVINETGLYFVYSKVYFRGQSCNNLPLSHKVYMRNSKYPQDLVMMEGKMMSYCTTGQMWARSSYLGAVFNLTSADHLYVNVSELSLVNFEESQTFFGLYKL
# B1: chimera A-Fc (Eg1S YTE) (Fc fusion)
# chain: ETFPPKYLHYDEETSHQLLCDKCPPGTYLKQHCTAKWKTVCAPCPPRHYTQFWNYLERCRYCNVLCGEREEEARACHATHNRACRCRTGFFAHAGFCLEHASCPPGAGVIAPGTPSQNTQCQPCPDGFFSNETSSKAPCRKHTNCSVFGLLLTQKGNATHDNICSGNSESTQKEPKSSDKTHTCPPCPAPELLGGPSVFLFPPKPKDTLYITREPEVTCVVVDVSHEDPEVKFNWYVDGVEVHNAKTKPREEQYNSTYRVVSVLTVLHQDWLNGKEYKCKVSNKALPAPIEKTISKAKGQPREPQVYTLPPSRDELTKNQVSLTCLVKGFYPSDIAVEWESNGQPENNYKTTPPVLDSDGSFFLYSKLTVDKSRWQQGNVFSCSVMHEALHNHYTQKSLSLSPGK
# B2: chimera A-E57K_R58E-Fc (Eg1S LALAGANA) (Fc fusion)
# chain: B1 chain with E57K, R58E, L192A, L193A, G195A, Y210M, T212S, E214T, N392A
# B3: chimera A-Fc (Eg1S LALAGANA) (Fc fusion)
# chain: B1 chain with L192A, L193A, G195A, Y210M, T212S, E214T, N392A
# B4: chimera A-E57K-Fc (Eg1S YTE) (Fc fusion)
# chain: B1 chain with E57K
# B5: chimera A-E57K-Fc (Eg1S LALAGANA) (Fc fusion)
# chain: B1 chain with E57K, L192A, L193A, G195A, Y210M, T212S, E214T, N392A
# B6: chimera A-E57K_R58E-Fc (Eg1S YTE) (Fc fusion)
# chain: B1 chain with E57K, R58E
# notes: also called 45-18-Fc (Eg1S YTE)
# B7: chimera A-E57K_R58D-Fc (Eg1S LALAGANA) (Fc fusion)
# chain: B1 chain with E57K, R58D, L192A, L193A, G195A, Y210M, T212S, E214T, N392A
# B8: chimera A-E57R-Fc (Eg1S YTE) (Fc fusion)
# chain: B1 chain with E57R
# B9: chimera A-E57V-Fc (Eg1S YTE) (Fc fusion)
# chain: B1 chain with E57V
# B10: chimera A-E57V-Fc (Eg1S LALAGANA) (Fc fusion)
# chain: B1 chain with E57V, L192A, L193A, G195A, Y210M, T212S, E214T, N392A
# B11: chimera A-E57R-Fc (Eg1S LALAGANA) (Fc fusion)
# chain: B1 chain with E57R, L192A, L193A, G195A, Y210M, T212S, E214T, N392A
# B12: chimera A-E57K_R58D-Fc (Eg1S YTE) (Fc fusion)
# chain: B1 chain with E57K, R58D
# notes: also called 45-10-Fc (Eg1S YTE)
# Molecular target: T1, primary soluble FasL produced from …
# Test: sandwich ELISA, binder captured
# Protocol: (§1) Then, 10 μg/mL of anti-human IgG antibodies (American Qualex International, Inc.) were immobilized to a 96-well immunoplate (Thermo Scientific), and blocking was performed with 2% Block Ace (DS Pharma Biomedical Co., Ltd.), and then 2 μg/mL of chimera A-Fc, E57K-Fc and 45-18-Fc (in all of which Fc is Eg1S YTE or Eg1S […]) were captured. The culture supernatant of human T cells stimulated for LIGHT production was concentrated 6-fold using Amicon Ultra-15 having a molecular weight cutoff of 3 kDa (Merck Millipore) prerinsed with sterile water. After the plate was washed, the 6-fold concentrated culture supernatant was reacted. As a standard of LIGHT, the soluble recombinant FLAG-LIGHT trimer produced in Example 13 was used. After the plate was washed, a biotinylated anti-LIGHT antibody (R&D Systems, Inc.) was reacted. After the plate was washed, streptavidin-HRP (PIERCE) was reacted. After washing again, a TMB solution (Dako) was added to develop a color. Then, a 2 N sulfuric acid solution was used to stop the chromogenic reaction, and the absorbance at 450 nm (reference wavelength of 570 nm) was measured.
# (§2) Sandwich ELISA was performed by the same method as in (1). On a 96-well immunoplate, chimera A-Fc, E57K-Fc and 45-18-Fc (in all of which Fc is Eg1S YTE or Eg1S […]) or the anti-human TL1A antibody produced in Example 16 was captured. Then, with the plate, a 4-fold concentrated culture supernatant of PBMCs stimulated for TL1A production or as a standard, the soluble recombinant His6-TL1A trimer produced in Example 13 was reacted, followed by detection with a biotinylated anti-TL1A antibody (R&D Systems, Inc.).
# (§3) Sandwich ELISA was performed by the same method as in (1). On a 96-well immunoplate, chimera A-Fc, E57K-Fc and 45-18-Fc (each including Eg1S YTE or Eg1S […] as an Fc) or Fas-Fc (R&D Systems, Inc.) was captured, and then a 6-fold concentrated culture supernatant of human T cells stimulated for AICD or as a standard, Human His6 Fas Ligand/TNFSF6 (Cell Signaling Technology, Inc.) was reacted, followed by detection with a biotinylated anti-FasL antibody included with Human Fas Ligand ELISA Kit (Abcam plc).
row,binding result,Binder
1,binds,B1
2,binds,B2
3,binds,B3
4,binds,B4
5,binds,B5
6,binds,B6

# Molecular target: primary soluble LIGHT produced from activated human T cells (human, UniProt O43557 83-240, limits assumed)
# Sequence (O43557 83-240 limits assumed): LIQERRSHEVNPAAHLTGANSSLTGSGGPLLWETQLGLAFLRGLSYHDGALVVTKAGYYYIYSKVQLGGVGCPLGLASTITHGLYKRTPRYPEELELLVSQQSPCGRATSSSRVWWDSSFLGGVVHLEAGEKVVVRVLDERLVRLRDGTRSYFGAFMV
# Test: sandwich ELISA, binder captured
# Protocol: as §1, §2, §3
row,binding result,Binder
1,binds,B1
2,binds,B2
3,binds,B3
4,binds,B4
5,binds,B5
6,binds,B6

# Molecular target: T2, primary soluble TL1A produced from an …
# Test: sandwich ELISA, binder captured
# Protocol: as §1, §2, §3
row,binding result,Binder
1,binds,B1
2,binds,B2
3,binds,B3
4,binds,B4
5,binds,B5
6,binds,B6

# Molecular target: T3, membrane-bound human FasL (Met and FLAG …)
# Test: flow cytometry on expressing cells
# Procedure, shortened: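 Binding was measured by flow cytometry on HEK293 cells forced to express membrane-bound LIGHT and on cell lines expressing N-terminally Met/FLAG-tagged TL1A or FasL from a CMV-promoter pClpuro vector. Cells at 1×10⁵ cells/well received 1 or 10 μg/mL protein on ice for 1 hour. After washing, cells were stained on ice for 1 hour with LIVE/DEAD Fixable Aqua and R-phycoerythrin goat F(ab′)₂ anti-human IgG (10 ng/mL, 0.1 or 1 μg/mL). Fluorescence was read on a FACS Fortessa.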
row,binding result,Binder
1,binds,B7
2,binds,B8
3,binds,B9
4,binds,B2
5,binds,B10
6,binds,B4
7,binds,B5
8,binds,B11
9,binds,B12
10,binds,B6
